Legend:
[1] = biological target: H5-Strep-tag (Strep-tag II-fused haemagglutinin H5 ectodomain of A/duck/Viet Nam/TG24-01/2005 (H5N1) (influenza A virus A/duck/Viet Nam/TG24-01/2005 (H5N1) | not stated)); assay: cross-linking
[2] = biological target: H5-Strep-tag (Strep-tag II-fused haemagglutinin H5 ectodomain of A/duck/Viet Nam/TG24-01/2005 (H5N1) (influenza A virus A/duck/Viet Nam/TG24-01/2005 (H5N1) | not stated)); assay: SEC

Work on “H5-Strep-tag (Strep-tag II-fused haemagglutinin H5 ectodomain of A/duck/Viet Nam/TG24-01/2005 (H5N1)” yielded a stoichiometry N [1] of 3 and a stoichiometry N [2] of 3.

— publication PMC6110258
